The text below walks through data of patent US20240279328A1 (Johns Hopkins, published 2024).

Assay [1] deals with T1, human Interleukin-2 (human, UniProt P60568 21-153, biotinylated (site not stated) when immobilised on streptavidin biosensors; soluble in the competition studies). Description: cell-based or functional assay.
In assay [2] the target is T1, human Interleukin-2. Kind of assay: BLI (Octet), biotinylated human IL-2 immobilised on streptavidin tip, soluble antibody titrated, normalized equilibrium response. The protocol:
Error bars represent s.d.
(§1) Biolayer interferometry binding studies: Binding studies were performed via bio-layer interferometry using an OctetRED96® biolayer interferometry instrument (Sartorius). […] Once baseline measurements were collected in PBSA, binding kinetics were measured by submerging the biosensors in wells containing serial dilutions of the appropriate analytes for 300 s (association) followed by submerging the biosensor in wells containing only PBSA for 500 s (dissociation). […] An irrelevant protein (the monoclonal antibody ipilimumab) was used as a control for nonspecific binding. Tips were regenerated in 0.1 M glycine pH 2.7. Data was processed and kinetic parameters were calculated using the Octet® Data Analysis software version 7.1 (Sartorius), assuming a 1:1 Langmuir binding model.
(BLI is a label-free optical method that tracks binding on a fibre tip over time.)

Assay [3] concerns the target T1, human Interleukin-2. Description: BLI, kinetic KD, immobilised human IL-2, soluble antibody. The protocol: as §1, with “model. Equilibrium binding was determined by total response measured after 295 s. Equilibrium titration curve fitting and KD value determination was implemented using GraphPad Prism, assuming all binding interactions to be first order.” for “model.”

For assay [4], the target named is T1, human Interleukin-2. Kind of assay: BLI (Octet), biotinylated human IL-2 on streptavidin sensors, soluble antibody, 1:1 Langmuir fit. On the procedure:
as §1, with “model. Equilibrium binding was determined by total response measured after 295 s. Equilibrium titration curve fitting and KD value determination was implemented using GraphPad Prism, assuming all binding interactions to be first order.” for “model.”

Assay [5] concerns the target T1, human Interleukin-2. Kind of assay: BLI, equilibrium KD from titration curve, immobilised human IL-2, soluble antibody. The protocol:
as §1, with “model. Equilibrium binding was determined by total response measured after 295 s. Equilibrium titration curve fitting and KD value determination was implemented using GraphPad Prism, assuming all binding interactions to be first order.” for “model.”

Assay [6] concerns the target T1, human Interleukin-2. Description: BLI, kinetic KD, immobilised human IL-2, soluble antibody. The source holds these as a separate data set.
The target of assay [7] is T1, human Interleukin-2. Description: cell-based or functional assay. The source holds these as a separate data set.
For assay [8], the target named is T1, human Interleukin-2. Description: BLI, equilibrium KD from titration curve, immobilised human IL-2, soluble antibody. The source holds these as a separate data set.
For assay [9], the target named is T1, human Interleukin-2. Kind of assay: BLI (Octet), immobilised human IL-2, soluble antibody, 1:1 Langmuir fit.

Where two headings read alike, the source gives them in different places.

T1 sequence (P60568 21-153 limits assumed): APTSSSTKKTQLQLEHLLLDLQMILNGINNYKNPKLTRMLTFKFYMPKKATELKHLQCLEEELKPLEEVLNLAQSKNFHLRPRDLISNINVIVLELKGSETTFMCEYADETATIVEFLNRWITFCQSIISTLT

B1: 602 antibody (wild type anti-human IL-2 antibody) (antibody, mouse IgG2a, kappa)
heavy: DEVQLQESGPGLVAPSQSLSITCTVSGFSLTNYDISWIRQPPGKGLEWLGVIWTGGGTNYNSGFMSRLSITKDNSKSQVFLKMNSLQTDDTAIYYCVRQGRTPYWGQGTLVTVSAAKTTAPSVYPLAPVCGDTTGSSVTLGCLVKGYFPEPVTLTWNSGSLSSGVHTFPAVLQSDLYTLSSSVTVTSSTWPSQSITCNVAHPASSTKVDKKIEPRGPTIKPCPPCKCPAPNLLGGPSVFIFPPKIKDVLMISLSPIVTCVVVDVSEDDPDVQISWFVNNVEVHTAQTQTHREDYNSTLRVVSALPIQHQDWMSGKEFKCKVNNKDLPAPIERTISKPKGSVRAPQVYVLPPPEEEMTKKQVTLTCMVTDFMPEDIYVEWTNNGKTELNYKNTEPVLDSDGSYFMYSKLRVEKKNWVERNSYSCSVVHEGLHNHHTTKSFSRTPGK
light: AGSDIQVTQSPSSLSVSLGDRVTITCKASKDIYNRLAWYQQKPGNAPRLLISGATSLETGVPSRFSGSGSGKDYTLTITSLQTEDVATYYCQQFWGTPYTFGGGTKLEIKRADAAPTVSIFPPSSEQLTSGGASVVCFLNNFYPKDINVKWKIDGSERQNGVLNSWTDQDSKDSTYSMSSTLTLTKDEYERHNSYTCEATHKTSTSPIVKSFNRNEC
In general, EC50 (read off the curve) refers to the concentration giving half of the maximal effect. A word on the Kd: it is a measure of binding affinity in units of concentration. Usually koff stands for a measure of how fast the partners let go of each other. Low values mean slow dissociation, high ones fast dissociation. What is called kon is the second-order rate constant of association. With B1, in assay [1], the “YT+ EC50 (STAT5 phosphorylation, IL-2Rα+ YT-1 cells)” value (shortened to “YT+ EC50”) amounted to 0.18 nM and the “YT- EC50 (STAT5 phosphorylation, IL-2Rα- YT-1 cells)” value (“YT- EC50” for short) is 5.2 nM. Besides, the “EC50 (read off the curve)” value in assay [2] is ~3 nM. Further, binding in assay [3] was put at a Kd of 2.5 nM. Further, in assay [4], the koff stood at 0.0019 s⁻¹ and the kon is 780000 M⁻¹ s⁻¹. Further, binding in assay [5] was put at a Kd of 3.2 nM.

B2: 602 M8 glycovariant (N-glycosylation site inserted in the light chain) (antibody, mouse IgG2a, kappa)
heavy: DEVQLQESGPGLVAPSQSLSITCTVSGFSLTNYDISWIRQPPGKGLEWLGVIWTGGGTNYNSGFMSRLSITKDNSKSQVFLKMNSLQTDDTAIYYCVRQGRTPYWGQGTLVTVSAAKTTAPSVYPLAPVCGDTTGSSVTLGCLVKGYFPEPVTLTWNSGSLSSGVHTFPAVLQSDLYTLSSSVTVTSSTWPSQSITCNVAHPASSTKVDKKIEPRGPTIKPCPPCKCPAPNLLGGPSVFIFPPKIKDVLMISLSPIVTCVVVDVSEDDPDVQISWFVNNVEVHTAQTQTHREDYNSTLRVVSALPIQHQDWMSGKEFKCKVNNKDLPAPIERTISKPKGSVRAPQVYVLPPPEEEMTKKQVTLTCMVTDFMPEDIYVEWTNNGKTELNYKNTEPVLDSDGSYFMYSKLRVEKKNWVERNSYSCSVVHEGLHNHHTTKSFSRTPGK
light: AGSNITVTQSPSSLSVSLGDRVTITCKASKDIYNRLAWYQQKPGNAPRLLISGATSLETGVPSRFSGSGSGKDYTLTITSLQTEDVATYYCQQFWGTPYTFGGGTKLEIKRADAAPTVSIFPPSSEQLTSGGASVVCFLNNFYPKDINVKWKIDGSERQNGVLNSWTDQDSKDSTYSMSSTLTLTKDEYERHNSYTCEATHKTSTSPIVKSFNRNEC
modifications: inserted N-linked glycosylation site (position shown only in a drawing)
notes: Two amino acids changed in the light chain to create a new N-glycosylation site; also called Mutant 8
B2: in [1], the “YT+ EC50” value came out at 0.17 nM and the “YT- EC50” value stood at 4.5 nM. Moreover, the dissociation constant (Kd) in assay [3] was found to be 1.8 nM. In assay [4], the off-rate (koff) amounted to 0.0018 s⁻¹ and the kon is 1e+06 M⁻¹ s⁻¹. This molecule also came in with a Kd in assay [5] of 2.3 nM.

B3: 602 M1 glycovariant (N-glycosylation site inserted in the heavy chain) (antibody, mouse IgG2a, kappa)
heavy: DEVQLQESGPGLVAPSQSLSITCTVSGFSLTNYDISWIRQPPGKGLEWLGVIWTGGGTNYNSGFMSRLSITKDNSKSQVFLKMNSLQTDDTAIYYCVRQGRTPYWGNGTLVTVSAAKTTAPSVYPLAPVCGDTTGSSVTLGCLVKGYFPEPVTLTWNSGSLSSGVHTFPAVLQSDLYTLSSSVTVTSSTWPSQSITCNVAHPASSTKVDKKIEPRGPTIKPCPPCKCPAPNLLGGPSVFIFPPKIKDVLMISLSPIVTCVVVDVSEDDPDVQISWFVNNVEVHTAQTQTHREDYNSTLRVVSALPIQHQDWMSGKEFKCKVNNKDLPAPIERTISKPKGSVRAPQVYVLPPPEEEMTKKQVTLTCMVTDFMPEDIYVEWTNNGKTELNYKNTEPVLDSDGSYFMYSKLRVEKKNWVERNSYSCSVVHEGLHNHHTTKSFSRTPGK
light: AGSDIQVTQSPSSLSVSLGDRVTITCKASKDIYNRLAWYQQKPGNAPRLLISGATSLETGVPSRFSGSGSGKDYTLTITSLQTEDVATYYCQQFWGTPYTFGGGTKLEIKRADAAPTVSIFPPSSEQLTSGGASVVCFLNNFYPKDINVKWKIDGSERQNGVLNSWTDQDSKDSTYSMSSTLTLTKDEYERHNSYTCEATHKTSTSPIVKSFNRNEC
modifications: inserted N-linked glycosylation site (position shown only in a drawing)
notes: One amino acid changed in the heavy chain to create a new N-glycosylation site; also called Mutant 1
As to B3, in assay [1], the “YT+ EC50” value stood at 0.16 nM and the “YT- EC50” value was determined as 6 nM. In assay [3], this molecule gave a Kd of 2.5 nM. In [4], the dissociation rate constant (koff) was determined as 0.002 s⁻¹ and the kon worked out at 790000 M⁻¹ s⁻¹. Further, the equilibrium dissociation constant (Kd) in [5] was 3.2 nM.

B4: F5111 M1 glycovariant (N-glycosylation site inserted in the heavy chain) (antibody, human IgG1, lambda)
heavy: not shown
light: GSNFMLTQPHSVSESPGKTVTISCTRSSGSIASNYVQWYQQRPGSSPTTVIYEDNQRPSGVPDRFSGSIDSSSNSASLTISGLKTEDEADYYCQSYDSSNVVFGGGTKLTVLGQPKAAPSVTLFPPSSEELQANKATLVCLISDFYPGAVTVAWKADSSPVKAGVETTTPSKQSNNKYAASSYLSLTPEQWKSHRSYSCQVTHEGSTVEKTVAPTECS
modifications: inserted N-linked glycosylation site (position shown only in a drawing)
The molecule B4 yielded a Kd in assay [6] of 1.1 nM. In [7], the “YT+ EC50” value amounted to 0.043 nM and the “YT- EC50” value was 0.89 nM. The molecule further registered a Kd in [8] of 7.8 nM. In assay [9], this molecule had a koff of 0.00038 s⁻¹ and a kon of 330000 M⁻¹ s⁻¹.

B5: F5111 M5 glycovariant (N-glycosylation site inserted in the light chain) (antibody, human IgG1, lambda, V domains shown)
VH: QLQLQESGPGLVKPSQTLSLTCTVSGGSISSGGYYWSWIRQHPGKGLEWIGYIYYSGSTYYNPSLKSRVTISVDTSKNQFSLKLSSVTAADTAVYYCARTPTVTGDWFDPWGRGTLVTVSS
VL: SNFMLTQPHSVSESPGKTVTISCTRSSGSIASNYVQWYQQRPGSSPTTVIYEDNQRPSGVPDRFSGSIDNSSNSASLTISGLKTEDEADYYCQSYDSSNVVFGGGTKLTVLG
modifications: inserted N-linked glycosylation site (position shown only in a drawing)
In [6], B5 showed a Kd of 0.82 nM. In addition, in [7], the “YT+ EC50” value amounted to 0.039 nM and the “YT- EC50” value is 0.79 nM. Also, the Kd in [8] came to 9.8 nM. For the same molecule, in [9], the koff was 0.00023 s⁻¹ and the kon came to 280000 M⁻¹ s⁻¹.

B6: F5111 M3 glycovariant (N-glycosylation site inserted in the heavy chain) (antibody, human IgG1, lambda)
heavy: not shown
light: GSNFMLTQPHSVSESPGKTVTISCTRSSGSIASNYVQWYQQRPGSSPTTVIYEDNQRPSGVPDRFSGSIDSSSNSASLTISGLKTEDEADYYCQSYDSSNVVFGGGTKLTVLGQPKAAPSVTLFPPSSEELQANKATLVCLISDFYPGAVTVAWKADSSPVKAGVETTTPSKQSNNKYAASSYLSLTPEQWKSHRSYSCQVTHEGSTVEKTVAPTECS
modifications: inserted N-linked glycosylation site (position shown only in a drawing)
B6: the dissociation constant (Kd) in assay [6] was 0.55 nM. For the same molecule, in [7], the “YT+ EC50” value is 0.089 nM and the “YT- EC50” value came to 0.39 nM. Further, in [8], the Kd worked out at 8.3 nM. Further, in assay [9], the koff came to 0.00017 s⁻¹ and the kon came out at 310000 M⁻¹ s⁻¹.

B7: F5111 M4 glycovariant (N-glycosylation site inserted in the light chain) (antibody, human IgG1, lambda, V domains shown)
VH: QLQLQESGPGLVKPSQTLSLTCTVSGGSISSGGYYWSWIRQHPGKGLEWIGYIYYSGSTYYNPSLKSRVTISVDTSKNQFSLKLSSVTAADTAVYYCARTPTVTGDWFDPWGRGTLVTVSS
VL: SNFMLTQPHSVSESPGKTVTISCTRSSGSIASNYVQWYQQRPGSSPTTVIYEDNQRPSGVPDRFSGSINSSSNSASLTISGLKTEDEADYYCQSYDSSNVVFGGGTKLTVLG
modifications: inserted N-linked glycosylation site (position shown only in a drawing)
In turn, B7 returned a Kd in assay [6] of 0.5 nM. Moreover, in assay [7], the “YT+ EC50” value is 0.17 nM and the “YT- EC50” value came out at 0.52 nM. The dissociation constant (Kd) in assay [8] came to 9.7 nM. Also, in assay [9], the koff turned out to be 0.00014 s⁻¹ and the kon was 270000 M⁻¹ s⁻¹.

B8: F5111 M2 glycovariant (N-glycosylation site inserted in the heavy chain) (antibody, human IgG1, lambda, V domains shown)
VH: QLQLQESGPGLVKPSQTLSLTCTVSGGSISSGGYYWSWIRQHPGKGLEWIGYIYYSGSTYYNPSLKSRVTISVDTSKNQFSLKLSNVTAADTAVYYCARTPTVTGDWFDPWGRGTLVTVSS
VL: SNFMLTQPHSVSESPGKTVTISCTRSSGSIASNYVQWYQQRPGSSPTTVIYEDNQRPSGVPDRFSGSIDSSSNSASLTISGLKTEDEADYYCQSYDSSNVVFGGGTKLTVLG
modifications: inserted N-linked glycosylation site (position shown only in a drawing)
The molecule B8 showed a dissociation constant (Kd) in assay [6] of 0.76 nM. In [7], the “YT+ EC50” value came to 0.098 nM and the “YT- EC50” value was 0.44 nM. The molecule also gave a dissociation constant (Kd) in assay [8] of 9.6 nM. In [9], this molecule had an off-rate constant (koff) of 0.00021 s⁻¹ and a kon of 270000 M⁻¹ s⁻¹.
